How the values were obtained:
[1] = target: UKNP5.2.1 E2E1-I53-50A (hepatitis C virus, strain UKNP5.2.1); assay: non-reducing SDS-PAGE; purified protein on a non-reducing gel; one band larger than 250 kDa, disulfide-bonded trimer
[2] = target: H77 E2E1-I53-50A (hepatitis C virus, strain H77); assay: as above
[3] = target: UKNP6.1.2 E2E1-I53-50A (hepatitis C virus, strain UKNP6.1.2); assay: as above
[4] = target: UKNP2.2.1 E2E1-I53-50A (hepatitis C virus, strain UKNP2.2.1 / UKNP2.1.1); assay: as above
[5] = target: AMS2b E2E1-I53-50A (hepatitis C virus, strain AMS2b); assay: as above
[6] = target: UKNP4.1.1 E2E1-I53-50A (hepatitis C virus, strain UKNP4.1.1); assay: as above
[7] = target: AMS0232 E2E1-I53-50A (hepatitis C virus, isolate AMS0232 (genotype 1a)); assay: as above
[8] = target: AMS0232 E2E1-I53-50A (hepatitis C virus, isolate AMS0232 (genotype 1a)); assay: SEC; Strep-Tactin-purified E2E1-I53-50A alone on Superdex 200 Increase 10/300 GL or Superose 6 Increase 10/300 GL; TBS/5% glycerol; elutes as a trimer

UKNP5.2.1 E2E1-I53-50A (complex)
stoichiometry N [1]: 3

H77 E2E1-I53-50A (complex)
stoichiometry N [2]: 3

UKNP6.1.2 E2E1-I53-50A (complex)
stoichiometry N [3]: 3

UKNP2.2.1 E2E1-I53-50A
stoichiometry N [4]: 3

AMS2b E2E1-I53-50A (complex)
stoichiometry N [5]: 3

UKNP4.1.1 E2E1-I53-50A (complex)
stoichiometry N [6]: 3

AMS0232 E2E1-I53-50A (complex)
stoichiometry N [7]: 3 | stoichiometry N [8]: 3

From publication PMC9700739
